Entries after “also recorded” stand apart in the source; their conditions may differ.
What was measured:
[1] = tested on: P. aeruginosa biofilm aggregates; assay: Biofilm aggregates embedded in agar blocks (anoxic fitness); format: cell-based; conditions: 22 hours growth then 5 hour treatment, 2 μg mL^−1; ~300 μm and deeper below agar surface
Protocol: Biofilm aggregate experiments. To test the effect of oxygen limitation in the presence of PodA30-162, biofilm aggregates were grown embedded in 0.5% noble agar blocks containing succinate minimal medium. Cultures were grown overnight to stationary phase in LB, washed once with succinate minimal medium, and resuspended to OD600 1.0. Samples were diluted 1:100 in agar at 44° C. and 175 μL was transferred to Nunc Lab-Tek chambered coverglass slides (8-well, 0.7 cm^2 area, supplier #155409). […] SYTO-9 from the LIVE/DEAD stain kit was used in place of DAPI to minimize background fluorescence. […] Biomass was quantified in ImageJ software (60) by identifying the Z-slice with the highest average fluorescent intensity (generally […] the agar surface), and setting the pixel threshold using the default ImageJ thresholding parameters at the Z-slice equivalent to the 100 μm depth. The number of particles in each slice of the Z-stack was determined using this threshold value and counting particles >10 μm^2 in area. […] Particle numbers for each slice were averaged between independent experiments and plotted against depth to quantify biofilm aggregates. […]
Oxygen diffusion modeling. […] Given these values, average cell number per mL was estimated by dividing the volume of total detected biofilm aggregates by the average volume of a P. aeruginosa cell (62) yielding a cell density estimate of 5×10^8. […]

P. aeruginosa biofilm = assay: Optical density of P. aeruginosa biofilm; format: cell-based; conditions: PodA vs inactive E154A; 1-OH-PHZ vs 1% DMSO

B1: PodA30-162: truncated pyocyanin demethylase encoded by MFORT_14352 of Mycobacterium fortuitum lacking N-terminal helix, SEQ ID NO: 2 (protein, listed as Mycobacterium fortuitum)
chain: MDGRGGRSTTEPVTMTLDVKNDQVAKHDFGKPGMDVGDMDIFSDILSVDGKQVGYDGGACFFTNVTPDNPMTYCELTIHLDAGEIFARSLTPHTLAPFTMAITGGTGEYANSKGELTVSGVATPDEKYELKLTKAENLYFQ
Question: With B1 as the molecule, how does the “detectable biofilm aggregates at anoxic depths” value [1] read?
Answer: sharper decline in detectable aggregates; also recorded: apparent biomass defect specifically at anoxic depths

Question: And the “optical density of biofilm” value (P. aeruginosa biofilm)?
Answer: significantly decreased
